The source of these data is paper PMC4122339, “Carbonic Anhydrase Generates CO2 and H^+ That Drive Spider Silk Formation Via Opposite Effects on the Terminal Domains” (PLoS Biology, 2014).

The data set deals with the molecule itself. The experiment in a line: NMR structure; solution NMR at 298 K; 1 mM protein in 20 mM sodium phosphate pH 6.8, 20 mM NaCl; intermolecular NOEs from a 13C/15N-filtered NOESY on a 50% labelled / 50% unlabelled sample, used as distance restraints with an upper limit of 5 Å.

B1: Araneus ventricosus minor ampullate spidroin (MiSp) C-terminal domain, truncated construct (residues 31-150 of the 150-residue C-terminal part) (domain or fragment)
chain: VTSGGYGYGTSAAAGAGVAAGSYAGAVNRLSSAEAASRVSSNIAAIASGGASALPSVISNIYSGVVASGVSSNEALIQALLELLSALVHVLSSASIGNVSSVGVDSTLNVVQDSVGQYVG
modifications: uniformly 13C/15N-labelled (a mixed sample of 50% 13C/15N-labelled and 50% unlabelled protein was used for the intermolecular NOEs)
notes: C-terminal domain of minor ampullate spidroin (MiSp), Araneus ventricosus; residues 31-150 of the printed 150-residue construct; PDB 2MFZ would settle this; also called A. ventricosus MiSp CT; source: E. coli BL21 (DE3), minimal medium, purified (Ni-NTA, thrombin cleavage, Ni-NTA); not shown: His tag-Thioredoxin-His tag, N-terminal, cleaved
With B1, the binding result is listed as “binds”.
